Reference: article PMC11265280

How the values were obtained:
[1] = target: PHEV spike S1 receptor-binding domain, Fc-tagged; experiment: co-immunoprecipitation, quantified band intensity; settings: 293T cells; n = 3; parent: est. 100; read off a plot
[2] = target: soluble murine DPP4-IgG1 (murine) (UniProt P28843); experiment: SPR; BIAcore X-100, CM5 chip, room temperature; soluble DPP4-IgG1 immobilised by amine coupling; S1-RBD injected at 0.125-4.0 µM in 0.01 M HEPES, 0.15 M NaCl, 0.5% surfactant P20, 3 mM EDTA, pH 7.4; reference cell with BSA; steady-state affinity model
[3] = target: soluble porcine DPP4-IgG1 (porcine) (UniProt P22411); experiment: as above
[4] = target: MERS-CoV spike RBD (Middle East respiratory syndrome-related coronavirus) (UniProt K9N5Q8); settings: cited from earlier work

Row | Substance | percent of parent (% of RBD binding) [1] | also measured
1 | murine dipeptidyl peptidase 4, GFP-tagged (from UniProt P28843) N229Q | 350 | –
2 | monomeric PHEV S1-RBD (SPR analyte) (domain or fragment) | – | Kd [2]: 361 nM; Kd [3]: 174 nM
3 | porcine dipeptidyl peptidase 4, GFP-tagged (from UniProt P22411) L294E; I295E | 110 | –
4 | porcine dipeptidyl peptidase 4, GFP-tagged (from UniProt P22411) N229Q | 190 | –
5 | porcine dipeptidyl peptidase 4, GFP-tagged (from UniProt P22411) K267A | 84 | –
6 | murine dipeptidyl peptidase 4, GFP-tagged (from UniProt P28843) K267A | 110 | –
7 | murine dipeptidyl peptidase 4, GFP-tagged (from UniProt P28843) Q344A | 120 | –
8 | porcine dipeptidyl peptidase 4, GFP-tagged (from UniProt P22411) R317A | 98 | –
9 | murine dipeptidyl peptidase 4, GFP-tagged (from UniProt P28843) N321Q | 250 | –
10 | murine dipeptidyl peptidase 4, GFP-tagged (from UniProt P28843) T336E | 100 | –
11 | porcine dipeptidyl peptidase 4, GFP-tagged (from UniProt P22411) R336E | 120 | –
12 | murine dipeptidyl peptidase 4, GFP-tagged (from UniProt P28843) A294E; R295E | 95 | –
13 | porcine dipeptidyl peptidase 4, GFP-tagged (from UniProt P22411) L294T; I295T | 82 | –
14 | murine dipeptidyl peptidase 4, GFP-tagged (from UniProt P28843) A294T; R295T | 100 | –
15 | porcine dipeptidyl peptidase 4, GFP-tagged (from UniProt P22411) Q344A | 130 | –
16 | murine dipeptidyl peptidase 4, GFP-tagged (from UniProt P28843) R317A | 92 | –
17 | porcine dipeptidyl peptidase 4, GFP-tagged (from UniProt P22411) N321Q | 170 | –
18 | DPP4 (from UniProt P27487) | – | Kd [4]: 17 nM
